Data from publication doi:10.1101/2023.11.30.569340.

Experiments:
[1] = target: EEEV PE6 virus-like particle (VLP) (Eastern equine encephalitis virus, strain PE6); assay: BLI
[2] = target: EEEV E2 domain B (Eastern equine encephalitis virus); assay: BLI

VLDLR LA1-2-Fc (Fc fusion)
Kd [1]: 505 nM

VLDLR LA4-6-Fc (Fc fusion)
Kd [1]: 2300 nM

VLDLR LA1-8-Fc (Fc fusion)
Kd [2]: 1400 nM
Kd [1]: 2.9 nM

VLDLR LA3-6-Fc (Fc fusion)
Kd [1]: 71.5 nM

VLDLR LA2-5-Fc (Fc fusion)
Kd [1]: 42.5 nM

VLDLR LA5-6-Fc (Fc fusion)
Kd [1]: 4200 nM

VLDLR LA3-5-Fc (Fc fusion)
Kd [1]: 32.3 nM

VLDLR LA2-3-Fc (Fc fusion)
Kd [1]: 1800 nM

VLDLR LA2-4-Fc (Fc fusion)
Kd [1]: 1100 nM

VLDLR LA3-4-Fc (Fc fusion)
Kd [1]: 3900 nM

S. vulgaris VLDLR LA1-8-Fc (Fc fusion)
Kd [1]: 11 nM

VLDLR LA1-3-Fc (Fc fusion)
Kd [1]: 363 nM

VLDLR LA4-5-Fc (Fc fusion)
Kd [1]: 11900 nM
